Where two headings read alike, the source gives them in different places. Numbered stars: 1 amine (or outer) side, 2 acyl side, 3 side chain; on linkers, the order of the positions; unused ones are H or OH. Square brackets hold non-standard residues; d marks the D form. Ends that are not written are not given here. * marks the point of attachment. CO(CH2CH2O)13CH2CH2CO = O=C(CCOCCOCCOCCOCCOCCOCCOCCOCCOCCOCCOCCOCCOCCC(=O)[*:2])[*:1]; 5FAM = O=C1OC2(c3ccc(O)cc3Oc3cc(O)ccc32)c2ccc(C(=O)*)cc21; NMeE = CN[C@@H](CCC(=O)O)C(=O)O
B5: HIS-PDZ3 protein (PSD-95 PDZ3, residues 309-401, with tag MHHHHHPRGS) (other)
chain: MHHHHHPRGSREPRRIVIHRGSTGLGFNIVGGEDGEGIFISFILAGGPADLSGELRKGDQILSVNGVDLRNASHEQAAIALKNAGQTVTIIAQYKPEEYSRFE

What was measured:
[1] = target: T1, HIS-PDZ2 protein (PSD-95 PDZ2, residues 155-249, with tag …) (human, UniProt P78352 155-249); experiment: ITC
[2] = target: T2, HIS-PDZ1-2 protein (PSD-95 PDZ1-2 tandem, residues 61-249, with tag …) (human, UniProt P78352 61-249); experiment: FP competition: displaces fluorescent NR2B probe (50 nM) from PDZ1-2 (3 µM)
[3] = target: T1, HIS-PDZ2 protein (PSD-95 PDZ2, residues …); experiment: FP competition, fluorescent NR2B probe
[4] = target: T1, HIS-PDZ2 protein (PSD-95 PDZ2, residues …); experiment: FP competition: displaces fluorescent NR2B probe (50 nM) from PDZ2 (3 µM)
[5] = target: T3, HIS-PDZ1 protein (PSD-95 PDZ1, residues 61-151, with tag …) (human, UniProt P78352 61-151); experiment: FP competition: displaces fluorescent NR2B probe (50 nM) from PDZ1 (20 µM)
T3 construct: expressed in E. coli

[6] = target: T2, HIS-PDZ1-2 protein (PSD-95 PDZ1-2 …); experiment: FP competition: displaces fluorescent NR2B probe (50 nM) from PDZ1-2 (3 µM); remark: listed apart in the source
[7] = target: T1, HIS-PDZ2 protein (PSD-95 PDZ2, residues …); experiment: FP competition, fluorescent NR2B probe; remark: listed apart in the source
[8] = target: T2, HIS-PDZ1-2 protein (PSD-95 PDZ1-2 …); experiment: ITC
[9] = target: T4, HIS-PDZ1-2 with tryptophan instead of isoleucine (PDZ1-2 I195W) (human, UniProt P78352 61-249); experiment: stopped-flow fluorimetry, Trp fluorescence; stopped-flow fluorescence titration, not FP
T4 construct: Used in the stopped-flow fluorimetry of ligand 74; also called PDZ1-21195W (so in the source)

[10] = target: B5; experiment: FP competition: fluorescent CRIPT probe (50 nM) on PDZ3 (5 µM)
[11] = target: T2, HIS-PDZ1-2 protein (PSD-95 PDZ1-2 …); experiment: FP competition, fluorescent NR2B probe; exact Ki not calculable
[12] = target: T2, HIS-PDZ1-2 protein (PSD-95 PDZ1-2 …); experiment: as above; remark: listed apart in the source
[13] = target: B5; experiment: FP competition, fluorescent CRIPT probe
[14] = target: T1, HIS-PDZ2 protein (PSD-95 PDZ2, residues …); experiment: FP competition, alanine scan
[15] = target: T3, HIS-PDZ1 protein (PSD-95 PDZ1, residues …); experiment: FP competition assay (Ki), fluorescent NR2B probe displaced from the PDZ domain; bar chart
[16] = target: T1, HIS-PDZ2 protein (PSD-95 PDZ2, residues …); experiment: as above
[17] = target: T3, HIS-PDZ1 protein (PSD-95 PDZ1, residues …); experiment: FP competition, fluorescent NR2B probe
[18] = target: T1, HIS-PDZ2 protein (PSD-95 PDZ2, residues …); experiment: FP competition, fluorescent NR2B probe; remark: listed apart in the source
[19] = target: T2, HIS-PDZ1-2 protein (PSD-95 PDZ1-2 …); experiment: FP competition, fluorescent NR2B probe
[20] = target: T3, HIS-PDZ1 protein (PSD-95 PDZ1, residues …); experiment: FP competition, fluorescent NR2B probe; remark: listed apart in the source
[21] = target: T2, HIS-PDZ1-2 protein (PSD-95 PDZ1-2 …); experiment: FP competition, fluorescent NR2B probe; remark: listed apart in the source
[22] = target: T2, HIS-PDZ1-2 protein (PSD-95 PDZ1-2 …); experiment: ITC; dimeric ligand, two IETAV joined by a PEG4 linker (X = 4)
[23] = target: T2, HIS-PDZ1-2 protein (PSD-95 PDZ1-2 …); experiment: ITC / FP
[24] = target: T5, Tat-NR2B (3); experiment: FP competition, fluorescent CRIPT probe
T5 construct: also called Tat-N2B (3); 20-mer Tat-NR2B peptide

[25] = target: B5; experiment: FP saturation binding
[26] = target: T3, HIS-PDZ1 protein (PSD-95 PDZ1, residues …); experiment: FP saturation binding
[27] = target: T1, HIS-PDZ2 protein (PSD-95 PDZ2, residues …); experiment: FP saturation binding
[28] = target: T2, HIS-PDZ1-2 protein (PSD-95 PDZ1-2 …); experiment: FP saturation binding
[29] = target: B5; experiment: FP competition, fluorescent CRIPT probe; remark: listed apart in the source

IESDV (also called pentapeptide (7)) [IESDV (7)]
Kd [1]: 2.6 µM | IC50 (read off the curve) [2]: ~9 µM | Ki [3]: 3.1 µM | IC50 (read off the curve) [4]: ~9 µM | IC50 (read off the curve) [5]: ~50 µM | IC50 (read off the curve) [6]: ~10 µM

{PEG12‑diacid}-IESDV (also: dimer: two peptides N-terminally joined via PEG12-diacid, Dimeric ligand) [(IESDV)2PEG12 (74)]
Ki [7]: 2.8 µM | Kd [8]: 0.09 µM | Ki [9]: ~0.1 µM | binding result [10]: no binding (tested: log(Conc/M) about -3.3) | Ki [3]: 3.1 µM | Ki [11]: ~0.1 µM | Ki [12]: ~0.1 µM

IESAV [Compound 13 (IESDV with Asp P^-1 replaced by Ala)]
fold higher Ki than CRIPT [13]: > 30 fold

IEADV [Compound 12 (IESDV with Ser P^-2 replaced by Ala)]
fold increase in Ki on Ala substitution of Ser (P^-2) in pentapeptide (7) [14]: 7 fold

B1: SIESDV (6) (peptide)
peptide: SIESDV
notes: N-terminal truncation of the NR2B peptide (1)
binding result [15]: binds | binding result [16]: binds

[NMeE]TAV (also called N-Methyl-ETAV (40)) [EMeTAV (40)]
Ki [17]: 11 µM | Ki [18]: 8.9 µM | Ki [13]: ~79 µM

{PEG0‑diacid}-IESDV (also: dimer: two peptides N-terminally joined via PEG0-diacid, Dimeric ligand) [Compound 81 (IESDV dimerized with PEG0-diacid)]
Kd [8]: 1.1 µM | IC50 (read off the curve) [2]: ~5 µM | Ki [3]: 3.1 µM | Ki [19]: 1.5 µM

B2: (GE[N-Cyclohexylethyl]TDV)2PEG12 (75) (peptide)
peptide: {CO(CH2CH2O)13CH2CH2CO}-GETDV-OH
modifications: not fully specified (residue 2); printed as (GE[N-Cyclohexylethyl]TDV)2PEG12 (75); also: dimer: two peptides N-terminally joined via PEG12-diacid
notes: Dimeric ligand; also called (GE[R]TDV)2-PEG12 (75)
Ki [20]: 83 µM | Ki [7]: 55 µM | Ki [21]: 5.5 µM | binding result [10]: no binding (tested: log(Conc/M) about -3.6)

B3: SSIESDV (5) (peptide)
peptide: SSIESDV
notes: as for B1
binding result [15]: binds | binding result [16]: binds

B4: (IETAV)2PEG4 (83) (peptide)
peptide: IETAV
modifications: also: dimer: two peptides joined at N-terminal amines by amide bonds through a PEG4-diacid linker
notes: Dimeric ligand
Kd [22]: 0.011 µM | fold increase in affinity compared to monomeric IETAV (82) [23]: 176 fold | Ki [3]: 1.1 µM | Ki [12]: ~0.1 µM

{PEG4‑diacid}-IESDV (also: dimer: two peptides N-terminally joined via PEG4-diacid, Dimeric ligand) [(IESDV)2PEG4 (78)]
Kd [1]: 3.3 µM | Kd [8]: 0.032 µM | Ki [3]: 2.7 µM | Ki [12]: ~0.1 µM

B5
binding result [24]: no binding

KQTSV [truncated CRIPT pentapeptide (KQTSV)]
fold reduction in Ki (so in the source) compared with CRIPT peptide (2) [13]: 14 fold

5FAM-KSGLDTKNYKQTSV (also: entry also covers Cy5-CRIPT: CSG linker, Cy5-maleimide on Cys, also called 5-FAM-CRIPT) [5-FAM/Cy5-CRIPT]
Kd [25]: 3.5 µM

B6: 5-FAM/Cy5-NR2B (peptide)
peptide: 5FAM-KSGYEKLSSIESDV
modifications: also: entry also covers Cy5-NR2B: CSG linker, Cy5-maleimide on Cys
notes: Kd said to be independent of the fluorophore; also called 5-FAM-NR2B; 5-Fam-NR2B peptide
Kd [26]: 20 µM | Kd [27]: 3 µM | binding result [25]: no binding | Kd [28]: 1.7 µM

KSGYEKLSSIESDV (also called NR2B peptide (1); NR2B WT) [NR2B (1), non-fluorescent NR2B peptide KSG-YEKLSSIESDV]
Ki [21]: 6.8 µM | binding result [29]: no binding

Source: patent US20160176924A1 (UNIVERSITY OF COPENHAGEN, published 2016)
